Measured values published in paper doi:10.1101/369454.

Assays:
[1] = target: E74C V144C Ta16.9 (Ta_(CT-ACD)), reduced (wheat (Triticum aestivum)) (UniProt Q41560); assay: native MS
[2] = target: E74C V144C Ta16.9 (Ta_(CT-ACD)), reduced (wheat (Triticum aestivum)) (UniProt Q41560); assay: dynamic light scattering
[3] = target: K49C W96C Ta16.9 (Ta_(dimer)), reduced (wheat (Triticum aestivum)) (UniProt Q41560); assay: dynamic light scattering
[4] = target: E81C V151C Ps18.1 (Ps_(CT-ACD)), reduced (Pisum sativum) (UniProt P19243); assay: dynamic light scattering
[5] = target: Ps18.1, cytosolic class-I small heat-shock protein from Pisum sativum, wild type (Pisum sativum) (UniProt P19243); assay: dynamic light scattering
[6] = target: Ps18.1, cytosolic class-I small heat-shock protein from Pisum sativum, wild type (Pisum sativum) (UniProt P19243); assay: SAXS
[7] = target: K49C W96C Ta16.9 (Ta_(dimer)), oxidized: disulfide bonded at the dimeric interface (wheat (Triticum aestivum)) (UniProt Q41560); assay: SEC
[8] = target: K49C W96C Ta16.9 (Ta_(dimer)), oxidized: disulfide bonded at the dimeric interface (wheat (Triticum aestivum)) (UniProt Q41560); assay: dynamic light scattering
[9] = target: K49C W96C Ta16.9 (Ta_(dimer)), oxidized: disulfide bonded at the dimeric interface (wheat (Triticum aestivum)) (UniProt Q41560); assay: cross-linking

For “E74C V144C Ta16.9 (Ta_(CT-ACD)), reduced (from UniProt Q41560 1-151) (natural protein)”, the stoichiometry N [1] was 12 and the stoichiometry N [2] was 12.

“K49C W96C Ta16.9 (Ta_(dimer)), reduced (from UniProt Q41560 1-151) (natural protein)” gave a stoichiometry N [3] of 12.

“E81C V151C Ps18.1 (Ps_(CT-ACD)), reduced (from UniProt P19243 1-158) (natural protein)” was tested, and the stoichiometry N [4] was 12.

“Ps18.1, cytosolic class-I small heat-shock protein from Pisum sativum, wild type (from UniProt P19243 1-158) (natural protein)” gave a stoichiometry N [5] of 12 and a stoichiometry N [6] of 12.

In the case of “K49C W96C Ta16.9 (Ta_(dimer)), oxidized: disulfide bonded at the dimeric interface (from UniProt Q41560 1-151) (natural protein)”, the stoichiometry N [7] is reported as 12, the stoichiometry N [8] is reported as 12 and the size of the disulfide-linked covalent unit [9] is reported as 2 chains.
